Experimental findings from paper PMC9278117 are described below.

pKd: −log10 of the molar value.

One assay has as its target 4A8 monoclonal antibody. Description: BLI. (In general: In BLI a coated tip is dipped into the sample, and binding shifts an interference pattern.)
In the next assay the target is CB6 monoclonal antibody. Description: BLI.

By pKd is commonly meant the negative decadic logarithm of the Kd, by convention in mol/L. Low readings indicate a large Kd, high ones a small Kd. In the case of “S1-mi3 NP (from UniProt P0DTC2 16-685) (complex)”, the pKd with 4A8 monoclonal antibody and with CB6 monoclonal antibody was greater than 12.00 in each case.

“S1-ferritin NP (from UniProt P0DTC2 16-685) (complex)”: the pKd is 8.93 with 4A8 monoclonal antibody and greater than 12.00 with CB6 monoclonal antibody.

For “S1-I53-50 NP (from UniProt P0DTC2 16-685) (complex)”, the pKd is 10.13 with 4A8 monoclonal antibody and greater than 12.00 with CB6 monoclonal antibody.
